Assay results: patent US11413337B2, “Peptide conjugated particles for the treatment of inflammation” (Northwestern University, priority 2012, dated 2022)
Where no end group is shown, it is not given here.

System: spleen, liver and lung; macrophages
Assay: detection and cellular localisation of particles after iv administration
Settings: 24 hours after intravenous infusion

TAMRA-labeled PLP139-151-coupled particles: particles coupled with TAMRA-labeled PLP139-151 (CHCLGKWLGHPDK; cysteine pairing not given here; also: TAMRA label, position not given here, coupled to particles; UniProt P60202 139-151, looked up, fragment)
cells taking up particles: marginal zone macrophages predominantly uptake
